The text below walks through data of patent US20180201677A1 (ERASMUS UNIVERSITY MEDICAL CENTER, published 2018).

For experiment [1], the target named is T1, human CD47 (human, UniProt Q08722 19-323). The experiment is described as follows: flow cytometry, titration of SIRPα-Fc-bio on Jurkat cells.
In experiment [2] the target is T1, human CD47. Nature of the experiment: cell-based or functional assay.

One may read the EC70 as the concentration at which the effect reaches the 70% level. Higher therefore signals weaker potency.

In the case of “biotinylated fusion protein of SIRPα (SIRPα-Fc-bio) (Fc fusion)”, in experiment [1], the EC70 was 7.5 µg/mL.

B1: anti-CD47 antibody 2.3D11 (antibody, V domains shown)
VH: QVQLQESGPGLVKPSGTLSLTCAVSGVSIRSINWWNWVRQPPGKGLEWIGEIYHSGSTNYNPSLKSRVTISVDKSKNQFSLKLNSVTAADTAVYYCARDGGIAVTDYYYYGLDVWGQGTTVTVSS
VL: EIVLTQSPATLSLSPGERATLSCRASESVSSNLAWYQQKPGQAPRLLIYGAFNRATGIPARFSGSGSGTDFTLTISSLEPEDFAVYYCQQRSDWFTFGGGTKVEIKR
Consider B1, for which the “phagocytosis of Raji tumor cell line targets by primary human macrophages (EC50)” value in experiment [2] was about 0.3 µg/mL.
